Measured values: patent US20230025280A1, “PH RESPONSIVE COMPOSITIONS, FORMULATIONS, AND METHODS OF IMAGING A TUMOR” (ONCONANO MEDICINE, INC, priority 2019, published 2023)
Values joined by “and” are separate entries in the source; they are usually repeats but may differ in a detail not shown here. Equal entries are not always repeated.

Test: Phase 1 (1a/1b) pharmacokinetics: plasma concentrations after single IV dose (validated direct fluorescence reader assay), noncompartmental analysis
Type: in vivo, human
Conditions: Phase 1a
From the text: Phase 1 is a single-Principal Investigator, non-randomized, open-label, single-arm, cross-sectional study to evaluate the safety, PK profile, and imaging feasibility of Compound 1 in patients with solid cancers who require surgical excision. The main purpose of this study was to investigate the safety, PK, and feasibility of Compound 1 as an intra-operative optical imaging agent to detect tumors and metastatic lymph nodes in solid cancers. The study was intended to investigate the optimal dose range of Compound 1 for an adequate TBR and CNR of fluorescence obtained intraoperatively at 24 (±8) hours post dosing and with ex vivo specimens using ICG compatible cameras and imaging devices.
Phase 1 enrolled 30 patients with solid cancers (HNSCC, breast cancer, esophageal cancer, or colorectal cancer) who have a biopsy-confirmed diagnosis of respective tumor types and are scheduled to undergo surgical resection of the tumor. The study design included a standard 3+3 design for the dose-escalation portion (Phase 1a; N=18 maximum) followed by a dose-expansion portion (Phase 1b; N=15). All patients received a single I.V. dose of Compound 1, followed by routine surgery approximately 24 hours after infusion of Compound 1.
Phase 1a was a dose-finding study performed in 5 cohorts of 3 patients each. The dose levels evaluated were […], and 1.2 mg/kg, in this sequence. Inter-cohort dose escalation took place after the last patient in the previous cohort completed the Day 10 safety assessment. Safety, PK, and imaging feasibility were evaluated in both the Phase 1a and 1b portions of the study. Patient safety is assessed during the study and for up to 10 days post-dose.
Study design: Single Compound 1 IV dose was administered as a 1-5 minute IV infusion to patients in five cohorts (0.1, 0.3, 0.5, 0.8, and 1.2 mg/kg) with three patients per cohort in Phase 1a and 15 patients at a dose of 1.2 mg/kg in Phase 1b. Patient demographic information including tumor types is presented in Table 4 and 5 for Phase 1a and Table 5 for Phase 1b. Intertek Pharmaceutical Services (San Diego, Calif.) determined Compound 1 plasma concentrations using a validated direct fluorescence reader assay. Pacific BioDevelopment (Davis, Calif.) performed the PK analysis.
Sample collection: Blood samples were collected prior to infusion and at 10 minutes and 0.5, 1, 3, 8, 24, 48, 72, and 240 hours after infusion.
Analysis: Plasma concentration versus time profiles were generated for each patient. Pharmacokinetic parameters were estimated using Phoenix WinNonlin (version 8.0). According to SOP, concentrations reported as BQL were set to 0 except for the 0.5 h sample for subject #ON1102, which was set to LLOQ/2 ([…] value used in parameter calculations) and the 24 and 48 h samples.
If the coefficient of determination for the terminal slope estimation was less than 0.8, T1/2 was not reported (NR). AUC extrapolated to infinity is not reported for any data set because in all cases the % extrapolated AUC was greater than 20% and thus the AUCinf estimate would not be reliable. The concentration at 10 minutes, the first time point measured (C10m), was also reported for each patient.
The area under the plasma concentration versus time curves from dosing to the last time point with a measurable concentration (AUClast) was estimated by the linear trapezoid method. The last three or more time points were used to estimate the elimination rate constant (λz) which was used to estimate the terminal-phase half-life (T1/2) and AUC from zero to infinity (AUCINF) from the following equations: […]

[1] = 0.5 mg/kg single IV, individual subject
[2] = 0.8 mg/kg single IV, individual subject
[3] = 1.2 mg/kg single IV, individual subject

With “PEO90-140-b-P(DBA60-150-r-ICG0-3-r-AMA0-3) [Compound 1]” the Cmax [1] was 22700 ng/mL and 17100 ng/mL and 14000 ng/mL, the Tmax [1] was 3.00 h and 0.500 h and the AUC0-24 hr (0.5 mg/kg single IV, mean) was 289 µg·h/mL. For the same substance, the AUCall (0.5 mg/kg single IV, mean) was 835 µg·h/mL, the AUClast (0.5 mg/kg single IV, mean) was 410 µg·h/mL and the C10 m (0.5 mg/kg single IV, mean) was 17.3 µg/mL. The Cmax (0.5 mg/kg single IV, mean) was 17900 ng/mL, the Tmax (0.5 mg/kg single IV, mean) was 2.17 h and the AUC0-24 hr (0.5 mg/kg single IV, median) was 314 µg·h/mL. The AUCall (0.5 mg/kg single IV, median) was 314 µg·h/mL, the AUClast (0.5 mg/kg single IV, median) was 160 µg·h/mL and the C10 m (0.5 mg/kg single IV, median) was 16.2 µg/mL. For the same substance, the Cmax (0.5 mg/kg single IV, median) was 17100 ng/mL, the Tmax (0.5 mg/kg single IV, median) was 3.00 h and the “Plasma Conc” value (0.500 mg/kg, 0.170 hr, individual subject) was 22.0 µg/mL and 16.2 µg/mL and 13.6 µg/mL. The “Plasma Conc” value (0.500 mg/kg, 0.170 hr, mean) was 17.3 µg/mL, the “Plasma Conc” value (0.500 mg/kg, 0.500 hr, individual subject) was 16.7 µg/mL and 15.9 µg/mL and 14.0 µg/mL and the “Plasma Conc” value (0.500 mg/kg, 0.500 hr, mean) was 15.5 µg/mL. For the same substance, the “Plasma Conc” value (0.500 mg/kg, 1.00 hr, individual subject) was 15.8 µg/mL and 13.8 µg/mL and 12.6 µg/mL, the “Plasma Conc” value (0.500 mg/kg, 1.00 hr, mean) was 14.1 µg/mL and the “Plasma Conc” value (0.500 mg/kg, 3.00 hr, individual subject) was 22.7 µg/mL and 17.1 µg/mL and 11.9 µg/mL. For the same substance, the “Plasma Conc” value (0.500 mg/kg, 3.00 hr, mean) was 17.2 µg/mL, the “Plasma Conc” value (0.500 mg/kg, 8.00 hr, individual subject) was 19.3 µg/mL and 14.6 µg/mL and 13.9 µg/mL and the “Plasma Conc” value (0.500 mg/kg, 8.00 hr, mean) was 15.9 µg/mL. For the same substance, the “Plasma Conc” value (0.500 mg/kg, 24.0 hr, individual subject) was “BQL (BQL (<10 μg/mL), set = 0 for PK analysis) (2×) and 12.4 μg/mL”, the “Plasma Conc” value (0.500 mg/kg, 24.0 hr, mean) was 4.13 µg/mL and the “Plasma Conc” value (0.500 mg/kg, 48.0 hr, individual subject) was “BQL (BQL (<10 μg/mL), set = 0 for PK analysis) (2×) and 14.0 μg/mL”. For the same substance, the “Plasma Conc” value (0.500 mg/kg, 48.0 hr, mean) was 4.67 µg/mL, the “Plasma Conc” value (0.500 mg/kg, 72.0 hr, individual subject) was “BQL (BQL (<10 μg/mL), set = 0 for PK analysis) (2×) and 12.0 μg/mL” and the “Plasma Conc” value (0.500 mg/kg, 72.0 hr, mean) was 4.00 µg/mL. For the same substance, the “Plasma Conc” value (0.500 mg/kg, 240 hr, individual subject) was “BQL (BQL (<10 μg/mL), set = 0 for PK analysis)”, the “Plasma Conc” value (0.500 mg/kg, 240 hr, mean) was 0.00 µg/mL and the “Mean AUC0-24h” value (0.8 mg/kg) was 383 µg·h/mL. The Mean C10 (0.8 mg/kg) was 19.8 µg/mL, the Mean terminal-phase half-life (0.8 mg/kg) was 79.0 h and the AUC0-24 hr [2] was 416 µg·h/mL and 354 µg·h/mL and 380 µg·h/mL. The AUCall [2] was 905 µg·h/mL and 518 µg·h/mL and 1790 µg·h/mL, the AUClast [2] was 756 µg·h/mL and 354 µg·h/mL and 927 µg·h/mL and the C10 m [2] was 21.7 µg/mL and 19.6 µg/mL and 18.2 µg/mL. For the same substance, the Cmax [2] was 23000 ng/mL and 19600 ng/mL and 18200 ng/mL, the T1/2 [2] was 74.5 h and 83.4 h and the Tmax [2] was 1.00 h and 0.170 h. For the same substance, the AUC0-24 hr (0.8 mg/kg single IV, mean) was 383 µg·h/mL, the AUCall (0.8 mg/kg single IV, mean) was 1070 µg·h/mL and the AUClast (0.8 mg/kg single IV, mean) was 679 µg·h/mL. The C10 m (0.8 mg/kg single IV, mean) was 19.8 µg/mL, the Cmax (0.8 mg/kg single IV, mean) was 20300 ng/mL and the T1/2 (0.8 mg/kg single IV, mean) was 79.0 h. The Tmax (0.8 mg/kg single IV, mean) was 0.447 h, the AUC0-24 hr (0.8 mg/kg single IV, median) was 380 µg·h/mL and the AUCall (0.8 mg/kg single IV, median) was 905 µg·h/mL. For the same substance, the AUClast (0.8 mg/kg single IV, median) was 756 µg·h/mL, the C10 m (0.8 mg/kg single IV, median) was 19.6 µg/mL and the Cmax (0.8 mg/kg single IV, median) was 19600 ng/mL. For the same substance, the T1/2 (0.8 mg/kg single IV, median) was 79.0 h, the Tmax (0.8 mg/kg single IV, median) was 0.170 h and the “Plasma Conc” value (0.800 mg/kg, 0.170 hr, individual subject) was 21.7 µg/mL and 19.6 µg/mL and 18.2 µg/mL. For the same substance, the “Plasma Conc” value (0.800 mg/kg, 0.170 hr, mean) was 19.8 µg/mL, the “Plasma Conc” value (0.800 mg/kg, 0.500 hr, individual subject) was 19.3 µg/mL and 17.6 µg/mL and 17.1 µg/mL and the “Plasma Conc” value (0.800 mg/kg, 0.500 hr, mean) was 18.0 µg/mL. For the same substance, the “Plasma Conc” value (0.800 mg/kg, 1.00 hr, individual subject) was 23.0 µg/mL and 18.2 µg/mL and 18.0 µg/mL, the “Plasma Conc” value (0.800 mg/kg, 1.00 hr, mean) was 19.7 µg/mL and the “Plasma Conc” value (0.800 mg/kg, 3.00 hr, individual subject) was 20.0 µg/mL and 14.4 µg/mL and 17.6 µg/mL. For the same substance, the “Plasma Conc” value (0.800 mg/kg, 3.00 hr, mean) was 17.3 µg/mL, the “Plasma Conc” value (0.800 mg/kg, 8.00 hr, individual subject) was 16.7 µg/mL and 15.1 µg/mL and 16.6 µg/mL and the “Plasma Conc” value (0.800 mg/kg, 8.00 hr, mean) was 16.1 µg/mL. For the same substance, the “Plasma Conc” value (0.800 mg/kg, 24.0 hr, individual subject) was 16.0 μg/mL and 13.7 μg/mL (2×), the “Plasma Conc” value (0.800 mg/kg, 24.0 hr, mean) was 14.5 µg/mL and the “Plasma Conc” value (0.800 mg/kg, 48.0 hr, individual subject) was 12.4 μg/mL and BQL (BQL (<10 μg/mL), set = 0 for PK analysis) and 10.8 μg/mL. For the same substance, the “Plasma Conc” value (0.800 mg/kg, 48.0 hr, mean) was 7.73 µg/mL, the “Plasma Conc” value (0.800 mg/kg, 72.0 hr, individual subject) was “BQL (BQL (<10 μg/mL), set = 0 for PK analysis) (2×) and 10.3 μg/mL” and the “Plasma Conc” value (0.800 mg/kg, 72.0 hr, mean) was 3.43 µg/mL. The “Plasma Conc” value (0.800 mg/kg, 240 hr, individual subject) was “BQL (BQL (<10 μg/mL), set = 0 for PK analysis)”, the “Plasma Conc” value (0.800 mg/kg, 240 hr, mean) was 0.00 µg/mL and the “Mean AUC0-24h” value (1.2 mg/kg) was 495 µg·h/mL. The Mean C10 (1.2 mg/kg) was 31.7 µg/mL, the Mean terminal-phase half-life (1.2 mg/kg) was 36.5 h and the AUC0-24 hr [3] was 348 µg·h/mL and 563 µg·h/mL and 574 µg·h/mL. For the same substance, the AUCall [3] was 348 µg·h/mL and 1160 µg·h/mL and 1020 µg·h/mL, the AUClast [3] was 184 µg·h/mL and 970 µg·h/mL and 891 µg·h/mL and the C10 m [3] was 28.0 µg/mL and 34.1 µg/mL and 33.0 µg/mL. For the same substance, the Cmax [3] was 28000 ng/mL and 34100 ng/mL and 33000 ng/mL, the T1/2 [3] was 32.5 h and 46.5 h and 30.6 h and the Tmax [3] was 0.170 h.
